What was measured:
[1] = molecular target: biotinylated K29-linked diUb (chemically synthesized) (UniProt P0CG48); assay: ELISA
[2] = molecular target: His-tagged K29-linked diubiquitin (UniProt P0CG48); assay: SPR
K29-linked diubiquitin [3] = molecular target: K29-linked diubiquitin (UniProt P0CG48); assay: Western blot
K29-linked diubiquitin [4] = molecular target: K29-linked diubiquitin (UniProt P0CG48); assay: crystal structure

EC50 [1]: 1.46 nM | Kd [2]: 3.13 nM | fold more sensitive than for the other diUbs tested (K29-linked diubiquitin [3]): > 320 fold | lowest amount detected (K29-linked diubiquitin [3]): 0.78 ng | stoichiometry N (K29-linked diubiquitin [4]): 1
B1: sAB-K29 (Fab, V domains shown)
VH: EVQLVESGGGLVQPGGSLRLSCAASGFNVSYSSIHWVRQAPGKGLEWVASIYSYYGSTYYADSVKGRFTISADTSKNTAYLQMNSLRAEDTAVYYCARYGFAGQPETWYAMDYWGQGTLVTVSS
VL: DIQMTQSPSSLSASVGDRVTITCRASQSVSSAVAWYQQKPGKAPKLLIYSASSLYSGVPSRFSGSRSGTDFTLTISSLQPEDFATYYCQQAYVEPITFGQGTKVEIK
